Measurements as given in the supplement of paper PMC10567573.
± gives the standard deviation.

Test: protein stability index of a GFP-peptide fusion (GPS, HEK-293T) (PSI 1-6); higher = more stable
Conditions: c terminus: a fixed tail appended
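Note: 24-mer peptide tiles fused after GFP, lentivirally expressed, FACS-sorted into six equal bins by GFP/DsRed ratio, decoded by Illumina sequencing, PSI is the read-weighted mean bin number.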

Row | Sequence | protein stability index (treatment: DMSO) | protein stability index (treatment: MLN4924 1 uM, 8 h)
1 | MFSDNSHCPDCGQQWFPSLELGHW [TOR1AIP2] | 2.33 ± 0.35 | 2.44 ± 0.34
2 | IGPNVLMVHKRSHTGERPFQCNQC [IKZF1] | 2.93 ± 0.26 | 3.17 ± 0.43
3 | CPSSPKQIHLDVDNDRTTPSDLDS [DLC1] | 5.52 ± 0.1 | 5.55 ± 0.14
4 | RLSVPRDSACDESSCIPKAFGNPK [IRX6] | 4.84 ± 0.18 | 4.89 ± 0.19
5 | LNPHIHLMGDESACIAYIRITQYL [CAMK2A] | 2.8 ± 0.44 | 2.71 ± 0.51
6 | NFDHFEILRAIGKGSFGKVCIVQK [STK32A] | 2.87 ± 0.27 | 3.02 ± 0.24
7 | LHSLDDFYIGKYFGGVLEYFMIQA [RHOBTB3] | 2.78 ± 0.37 | 2.8 ± 0.63
8 | VWMDDFKSHVYMAWNIPMSNPGVD [GALNT9] | 2.21 ± 0.3 | 2 ± 0.2
9 | ALREENRMLSKENKILQVFWEEHK [CBY2] | 3.19 ± 0.12 | 3.28 ± 0.3
10 | HYMEENLMDGGDLPSVTDIRRPRL [PLK2] | 4.15 ± 0.16 | 4.22 ± 0.13
11 | SDKDKAVGIFNTVINPMLNPIIYS [OR3A1] | 2.54 ± 0.3 | 2.71 ± 0.25
12 | PSITRKRRYVASVSLHDRIYVIGG [KLHL12] | 2.24 ± 0.26 | 2.13 ± 0.4
13 | QKLQEITRCKSSEEKKPGELKRLV [TRIM39] | 4.16 ± 0.37 | 4.21 ± 0.17
14 | LLKAGADVNKTDHSQRTALHLAAQ [INVS] | 4.11 ± 0.33 | 4.09 ± 0.17
15 | SVSLDRCIKIWDVTSQATLLTITK [WDR88] | 2.43 ± 0.2 | 2.43 ± 0.21
16 | ARKGKGAFCNGQKLQVSQQEDITK [IMPA1] | 4.46 ± 0.18 | 4.67 ± 0.18
17 | LLGEETPMAADEGSAEKQAGEAHM [EHMT1] | 5.66 ± 0.31 | 5.57 ± 0.38
18 | RVGIFLDYEAGTLSFYNVTDRSHI [TRIM39] | 2.6 ± 0.77 | 2.26 ± 0.35
19 | SAEEVRFPVSVTQQSPAAVSMETY [C2CD2L] | 4.52 ± 0.33 | 4.71 ± 0.14
20 | QNVHFHRSGSPTVPIKPPCIPNGK [CAMK2D] | 3.85 ± 0.26 | 4.05 ± 0.2
21 | SVPIVYEKYKTQIDHYVGIARDQT [RTN3] | 2.89 ± 0.36 | 3.06 ± 0.09
22 | TLPAGADFLMCYSVAEGYYSHRET [CASP6] | 2.5 ± 0.15 | 2.51 ± 0.4
23 | VFQHGDNSFRLLFDVVVILTCSLS [MCOLN1] | 3.25 ± 0.13 | 3.32 ± 0.21

Row | Sequence | protein stability index (treatment: DMSO) | protein stability index (treatment: MLN4924 1 uM, 8 h)
24 | NGLEDIDRILERIEDSTGLNRPGP [TCF25] | 4.48 ± 0.21 | 4.75 ± 0.21
25 | KFAMYPPSMIATGSVGAAICGLQQ [CCND2] | 2.4 ± 0.52 | 2.2 ± 0.4
26 | HWNSTIKRKVDTGGFLSESKDCKP [MYBL2] | 3.93 ± 0.57 | 4.12 ± 0.32
27 | VYSNTIQSIIAIIRAMGRLKIDFG [GNAI1] | 2.7 ± 0.53 | 2.13 ± 0.29
28 | VQGPGVVGEFPIISPGRVYEYTSC [FBXO3] | 2.72 ± 0.52 | 3 ± 0.32
29 | VGDEFLNCKLATRAKDFLPADIQA [SNX8] | 2.88 ± 0.26 | 2.92 ± 0.27
30 | SSVQKALFEEEDHVKKLQQKVATL [CCDC3] | 4.46 ± 0.33 | 4.49 ± 0.32
31 | FWNQGLTWKVLFCSMSATFTLNFF [CLCN6] | 3.31 ± 0.5 | 3.17 ± 0.21
32 | DREDSPERCSDSDEEKKARRGRSP [CLINT1] | 5.59 ± 0.3 | 5.34 ± 0.25
33 | ACRVTELQQQPLCTSVNTIYDNAV [LRRC59] | 2.68 ± 0.4 | 2.61 ± 0.25
34 | CRRSIRSALGRQRLQDISSLPLPQ [SPSB4] | 3.03 ± 0.38 | 3.33 ± 0.43
35 | MCVAQVLTAHLLPPRQALGSLCSP [YPEL3] | 2.8 ± 0.93 | 2.8 ± 0.35
36 | SDKYPIQDTELPKAEECDTITLNC [EDARADD] | 5.25 ± 0.41 | 5.26 ± 0.21
37 | ELQRTKQEVLSLRRENSTLDVECH [SASS6] | 4.02 ± 0.33 | 3.93 ± 0.2
38 | GPPRAPGRSGWPAGGAPGSPIPSP [HES6] | 4.32 ± 0.18 | 4.26 ± 0.2
39 | FYGHSHHSHHGHPSHQSHSLPNRR [C10orf62] | 3.99 ± 0.29 | 4.21 ± 0.21
40 | QLMEKLREKQLSHSLRAVSTDPPH [BEX1] | 3.35 ± 0.37 | 3.27 ± 0.34
41 | PLSDKGTTPLQLAIIRERSSCVKI [ASB7] | 2.64 ± 0.22 | 2.81 ± 0.4
42 | PRESTDFSSSSQEAFAASAVGSGE [ZBTB22] | 5.22 ± 0.26 | 5.31 ± 0.27
43 | TSRGGPWVGTGLAAALAGLVGLAT [CPOX] | 1.89 ± 0.93 | 2.49 ± 0.087
44 | NPIQKEEDEGVDLSEGSSNEDEDL [SPANXN3] | 4.96 ± 0.43 | 4.95 ± 0.39
45 | EVKTRHSEKSQREDEEEEEGENYQ [CHGB] | 5.64 ± 0.28 | 5.48 ± 0.31
46 | EDSCAELGESKEHMESRMVTETEE [SDE2] | 5.7 ± 0.18 | 5.63 ± 0.3

Row | Sequence | protein stability index (treatment: DMSO) | protein stability index (treatment: MLN4924 1 uM, 8 h)
47 | HKHVHFSSSFTSIASEWFLIANRS [SLC22A15] | 2.43 ± 0.57 | 2.04 ± 0.33
48 | GQPFNSDDRNTACHHGLVADSLQA [DLC1] | 4.49 ± 0.2 | 4.63 ± 0.1
49 | DLRVLVSNASEDTRRLRLAHVGME [SCARA5] | 2.9 ± 0.17 | 3.15 ± 0.11
50 | KAFYKRYRLTEHERAHKGEKPYGC [ZNF649] | 3.62 ± 0.93 | 3.16 ± 0.57
51 | AERLRAELLDLKAGGFSIRNQKGE [MYORG] | 4.1 ± 0.26 | 4.24 ± 0.29
52 | AKTFHLVNPNGQKQQLVDAFLKLA [FAN1] | 2 ± 0.36 | 2.05 ± 0.17
53 | LTKTFQGPAVVCGTPTSHVYMFKN [LYSMD4] | 2.45 ± 0.22 | 2.63 ± 0.15
54 | SLNSTFGSTNLTGLFFPPQLNGTA [NFE2L1] | 2.52 ± 0.35 | 2.92 ± 0.38
55 | AVNSGGPLESIDHSVTGFLCEPDP [ALG2] | 4.82 ± 0.21 | 4.91 ± 0.22
56 | MVRSVAWAGFMVLLMIPWGSAAKL [CHIT1] | 3.13 ± 0.57 | 2.87 ± 0.2
57 | ITDLPRIDVSKREPPPVKQELPPY [EFHC1] | 4.37 ± 0.033 | 4.45 ± 0.17
58 | MTSSSAYYYTKVMSELFLHTPSDT [PKD2L1] | 2.51 ± 0.28 | 2.16 ± 0.28
59 | PKGLDDESKDYLSLYLLLVSCPKS [SPOPL] | 2.34 ± 0.38 | 2.95 ± 0.69
60 | MLAEIFCQTGGVEDQEEWHAQVVE [ZBED1] | 3.05 ± 0.2 | 3.49 ± 0.4
61 | VCGQNWGIVEAMVVCRQLGLGFAS [LOXL2] | 3.33 ± 0.11 | 3.18 ± 2
62 | LFQIDVYDFMNSAFSPIVILTERV [MIA2] | 2.75 ± 0.73 | 3.06 ± 0.91
63 | HLDIWKSAAWMKERTSPGAIHYCA [SPDEF] | 2.21 ± 0.39 | 2.4 ± 0.32
64 | MSYDEISQLRLVCKRMDLVCQRML [FBXO28] | 2.43 ± 0.34 | 2.25 ± 0.36
65 | LPDELGSQLPQVLHVSLGQKLVAA [MOSPD3] | 3 ± 0.34 | 3.14 ± 0.089
66 | SSGEDKENDGFVFKMPWKPTHPSS [CDC25B] | 3.92 ± 0.22 | 4.16 ± 0.25
67 | LYLIAKRNRKLKCTFSLTHPANRS [SLC22A15] | 2.49 ± 0.41 | 2.41 ± 0.17
68 | REQEKKPKKEANQAPKSKSGSRPR [LRRC59] | 5.41 ± 0.16 | 5.3 ± 0.23
69 | VPGIFCAGADLKERAKMSSSEVGP [AUH] | 3.59 ± 0.34 | 3.64 ± 0.29

Row | Sequence | protein stability index (treatment: DMSO) | protein stability index (treatment: MLN4924 1 uM, 8 h)
70 | QSHISDMSVILSMDNNRNLDLDSI [KRT71] | 3.87 ± 0.4 | 3.72 ± 0.35
71 | DVIIEVNGVNVLDEPYEKVVDRIQ [PDZK1] | 3.73 ± 0.32 | 3.81 ± 0.97
72 | DSKIAFLMQLQDIQYLTENIWASQ [IQUB] | 2.9 ± 0.64 | 2.46 ± 0.62
73 | TSSSTVVSTQRSQDHFHVFVGDLS [TIA1] | 3.34 ± 0.071 | 3.42 ± 0.23
74 | KLEEERAKLHDVELHQVAERVEAL [GNB5] | 5 ± 0.34 | 5.15 ± 0.18
75 | ILFSLPPALDWDSVHVPGPHAMTI [PTPN9] | 2.66 ± 0.42 | 2.35 ± 0.62
76 | LPPDVTTQSVMGFDPLPPSDTIYS [TCF25] | 4.19 ± 0.16 | 4.37 ± 0.34
77 | KCLQLLGNLGSLEKSVTKDAEGLA [INTS4] | 2.82 ± 0.46 | 3.08 ± 0.099
78 | FSVTGGTEEKSSLLMSCLACDTWA [RPAIN] | 2.27 ± 0.26 | 2.27 ± 0.25
79 | QDLCGVSTCDTLGMADVGTVCDPA [ADAMTS4] | 5.07 ± 0.25 | 5.25 ± 0.26
80 | ESVEQLESRIVEQENAIQTMELRN [SNX8] | 5.41 ± 0.21 | 5.51 ± 0.11
81 | KVSYLKQKGLGGAMVWALDLDDFA [CHIT1] | 1.85 ± 0.49 | 2.36 ± 0.3
82 | DDDDNLPQLKKESELPFVPNYLAN [ANKRD40] | 4.77 ± 0.12 | 4.84 ± 0.076
83 | HHVPGGGNVKIDSQKLNFREHAKA [MAP2] | 4.3 ± 0.43 | 4.4 ± 0.27
84 | PLVKKHCDDSFTPQEKLWQQLRRG [CPOX] | 3.49 ± 0.21 | 3.57 ± 0.2
85 | LGKTEQGFENMDFFTLDLEHIADA [TRIM63] | 3.85 ± 0.21 | 3.8 ± 0.12
86 | PEKEYQRQVWLLFEYPESSGPARV [KCNA1] | 2.59 ± 0.29 | 2.06 ± 0.33
87 | VLEHSLDREEEAIHHLVLTASDGG [PCDHGA10] | 4.66 ± 0.18 | 4.84 ± 0.17
88 | YGNGMRKSPEMPVILEVSLEGSHD [RTP4] | 3.58 ± 0.26 | 3.97 ± 0.41
89 | QMSGEPLDKLNFEAINFCRGLGSQ [ACSBG2] | 3.51 ± 0.49 | 2.89 ± 0.39
